Experiments:
Assay in all cases: […]; 10 mM Tris pH 7.4, 150 mM NaCl, 1 mM EDTA
[1] = molecular target: PfN–PCoil fragment of EPclA (residues 1-250)
[2] = molecular target: Trx–PfC, PfC domain of EPclA (residues 363-426) fused to thioredoxin
[3] = molecular target: Col–PfC fragment, endogenous proteolytic fragment of rEPclA with only the Col and PfC domains (Escherichia coli O157:H7 strain RIMD 0509952 (Sakai))
[4] = molecular target: PfC domain of EPclA (residues 363-426) after removal of thioredoxin by thrombin

Q: How did the stoichiometry N [1] turn out when “PfN–PCoil fragment of EPclA (residues 1-250) (domain or fragment)” was run?
A: The stoichiometry N was 3.

Q: Which stoichiometry N [2] does the source give for “Trx–PfC, PfC domain of EPclA (residues 363-426) fused to thioredoxin (domain or fragment)” here?
A: Its stoichiometry N is 3.

Q: “Col–PfC fragment, endogenous proteolytic fragment of rEPclA with only the Col and PfC domains (domain or fragment)” was tested. Which stoichiometry N [3] did it give?
A: Its stoichiometry N is 3.

Q: For “PfC domain of EPclA (residues 363-426) after removal of thioredoxin by thrombin (domain or fragment)”, which stoichiometry N [4] is on record?
A: The stoichiometry N was 3.
